Experimental data from patent publication US20160131656A1 (EXTERNAUTICS S P A, published 2016).

B1: FAT1 25 mer Peptide 1 (peptide)
peptide: REPLYHVIATDKDEGPNAEISYSIE
notes: Made by chemical synthesis
B2: FAT1 25 mer Peptide 2 (peptide)
peptide: YHVIATDKDEGPNAEISYSIEDGNE
notes: Made by chemical synthesis
B3: FAT1 25 mer Peptide 3 (peptide)
peptide: IQVEATDKDLGPNGHVTYSIVTDTD
notes: Made by chemical synthesis
B4: anti-FAT1 monoclonal antibody mAb91.3 (antibody, V domains shown)
VH: VQLQQSGSELVRPGASVKLSCKASGYTFTRSWMHWIKQRPGQGLEWIGNIYPGSGGTNYDEKFKSKATLTVDTSSSTAYMQLSSLTSEDSAIYYCTRSGGQRFDYWGQGTTLTVSS
VL: IVMTQSPAIMSAFSGEKVTMTCSASSSVSSMHWYQQKSSTSPKFWIYDTSKLASGVPGRFSGSGSGNSYSLTISSMEAEDVATYYCFQGSGYPFTFGGGTKLEIKR
notes: Mouse hybridoma antibody, subclass IgG1k; also called anti-FAT1 mAb91.3; the anti-FAT1 monoclonal antibody

What was measured:
[1] = biological target: B4; assay: FACS competition on HCT-15 cells: mAb91.3 incubated with rising peptide concentration; blocked partner is FAT1 on the cell surface
Method: For Flow Cytometry analysis, cells (2×10⁴ per well) were pelleted in 96 U-bottom microplates by centrifugation at 200× g for 5 min at 4° C. and incubated for 1 hour at 4° C. with the appropriate dilutions of anti-FAT1-monoclonal antibody. The cells were washed twice in PBS-5% FCS and incubated for 20 min with the appropriate dilution of R-Phycoerythrin (PE)-conjugated secondary antibodies (Jackson Immuno Research, PA, USA) at 4° C. After washing, cells were analysed by a FACS Canto II flow cytometer (Becton Dickinson). Data were analyzed with FlowJo 8.3.3 program.

FAT1 25 mer Peptide 2 = biological target: B2; assay: ELISA with 25 mer peptides
Method: (§1) For ELISA competition experiments, ELISA plates (Nunc Maxisorp) were coated with 1 μg of the FAT1 recombinant proteins in PBS (pH 7.4) at 4° C. overnight. The plates were washed, treated for 1 h at 37° C. with PBS-1% BSA, and 100 μl aliquots of mAb91.3 at (10 micrograms/ml) in PBS-0.1% Tween were added to the wells in the presence of the 25 mer peptides at concentration ranging from 0.001 to 100 micrograms/ml. After incubation for 2 h at 37° C., plates were again washed and incubated for 1 h at 37° C. with alkaline-phosphatase conjugated goat anti-mouse IgG (Sigma) diluted 1:2500 in PBS-Tween. Thereafter 100 μl of PNPP substrate (Sigma) were added to the samples and incubated for 30 min at room temperature and optical densities were read at 405 nm.

FAT1 25 mer Peptide 3 = biological target: B3; assay: ELISA with 25 mer peptides
Method: as §1

FAT1 25 mer Peptide 1 = biological target: B1; assay: ELISA with 25 mer peptides
Method: as §1

[2] = biological target: T1, FAT1 recombinant cadherin Domain 8 (amino acid 823 to amino acid 927) (human, UniProt Q14517 826-923, limits assumed); assay: SPR, Biacore T100, 25 C, FAT1 domain amine-coupled to CM5 chip, mAb91.3 injected, 1:1 Langmuir model
T1 construct: Recombinant form purified from E. coli, used in ELISA and SPR; Any tag is not described; A His6-V5 tagged version was also expressed in transfected HeLa and HEK-293T cells for Western blot; also called FAT Domain 8
T1 sequence: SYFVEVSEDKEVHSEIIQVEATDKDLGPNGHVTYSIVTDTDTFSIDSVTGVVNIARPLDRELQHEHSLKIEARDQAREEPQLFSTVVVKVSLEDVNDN
Method: (§2) The kinetics of association and dissociation and the Dissociation constants of the anti-FAT1 mAb91.3 were determined using Surface Plasmon Resonance Analysis. Experiments were performed at 25° C. with a BIACORE T100 instrument (Biacore A B, Uppsala, Sweden). The recombinant FAT1 proteins were immobilised on a carboxymethylated dextran-coated (CM5) sensor chip by amine coupling. Briefly, a mixture of 0.2 M 1-ethyl-3-[…]-carbodiimide (EDC) and 0.05 M N-hydroxysuccinimide (NHS) was used for sensor chip surface activation. Proteins pre-concentrated in 0.01 M sodium acetate pH 3.5 were injected at concentration ranging from 2.5 and 5 μg/ml for 10 min and then 1 M ethanolamine pH 8.5 was used to block any remaining activated groups. mAb91.3 was diluted in HBS-EP+buffer at different concentrations from 0.625 μg/ml to 5 μg/ml and injected for 120 s at a flow rate of […] on flow cell 2 and 3. HBS-EP+ buffer was run as control.

[3] = biological target: T2, FAT1 recombinant cadherin Domain 12 (amino acid 1246 to 1352) (human, UniProt Q14517 1250-1344, limits assumed); assay: as above
T2 construct: Recombinant form purified from E. coli, used in ELISA, SPR and Western blot; Any tag is not described; also called FAT Domain 12
T2 sequence: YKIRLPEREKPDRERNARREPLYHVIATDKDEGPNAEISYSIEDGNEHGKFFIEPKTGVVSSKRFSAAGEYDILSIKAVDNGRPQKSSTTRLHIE
Method: as §2

B1
IC50 (read off the curve) [1]: ~0.5 µg/mL

B2
binding result [1]: binds

B3
binding result [1]: binds

B4
binding result (FAT1 25 mer Peptide 2): binds
binding result (FAT1 25 mer Peptide 3): binds
binding result (FAT1 25 mer Peptide 1): binds
Kd [2]: 9.52 nM
koff [2]: 0.00313 s⁻¹
kon [2]: 329000 M⁻¹ s⁻¹
Kd [3]: 18.2 nM
koff [3]: 0.00707 s⁻¹
kon [3]: 389000 M⁻¹ s⁻¹
